Measured values published in patent US20110123544A1 (published 2011).

T1: recombinant human IL-12 (rhIL-12) (human, UniProt P29459 23-219; P29460 23-328)
T1 chain 1: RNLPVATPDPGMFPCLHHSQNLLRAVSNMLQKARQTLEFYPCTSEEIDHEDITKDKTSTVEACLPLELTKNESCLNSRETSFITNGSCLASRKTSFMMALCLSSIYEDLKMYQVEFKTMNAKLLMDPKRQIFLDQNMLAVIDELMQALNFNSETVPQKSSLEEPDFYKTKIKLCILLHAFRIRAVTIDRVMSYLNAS
T1 chain 2: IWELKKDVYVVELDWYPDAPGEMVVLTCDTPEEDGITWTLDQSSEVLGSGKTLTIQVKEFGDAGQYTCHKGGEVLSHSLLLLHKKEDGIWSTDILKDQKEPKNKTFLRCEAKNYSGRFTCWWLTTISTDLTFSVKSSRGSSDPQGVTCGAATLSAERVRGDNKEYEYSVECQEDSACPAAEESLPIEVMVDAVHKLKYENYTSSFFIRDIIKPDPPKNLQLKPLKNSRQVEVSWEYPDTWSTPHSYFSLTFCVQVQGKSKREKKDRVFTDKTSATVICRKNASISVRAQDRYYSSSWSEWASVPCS

T2: recombinant human IL-12 (rhIL-12) (human, UniProt P29459 23-219; P29460 23-328)
T2 construct: disulfide-linked p35/p40 heterodimer (p70); also called rec. human IL12; IL-12 p70
T2 sequence (looked up) 1: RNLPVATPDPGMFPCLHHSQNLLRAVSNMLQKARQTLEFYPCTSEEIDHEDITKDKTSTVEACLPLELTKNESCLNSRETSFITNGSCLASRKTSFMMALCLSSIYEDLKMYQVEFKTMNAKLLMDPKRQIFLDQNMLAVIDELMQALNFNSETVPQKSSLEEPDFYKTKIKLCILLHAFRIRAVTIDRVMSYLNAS
T2 sequence (looked up) 2: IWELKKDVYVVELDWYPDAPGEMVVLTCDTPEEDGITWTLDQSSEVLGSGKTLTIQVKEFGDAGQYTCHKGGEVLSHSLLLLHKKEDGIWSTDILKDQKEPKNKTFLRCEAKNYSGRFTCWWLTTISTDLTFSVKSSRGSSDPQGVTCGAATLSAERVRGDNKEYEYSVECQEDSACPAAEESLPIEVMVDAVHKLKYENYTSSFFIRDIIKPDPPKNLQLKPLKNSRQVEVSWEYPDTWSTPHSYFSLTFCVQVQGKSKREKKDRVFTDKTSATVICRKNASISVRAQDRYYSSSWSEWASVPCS

T3: recombinant human interleukin 12 (p40/p35 heterodimer) (human, UniProt P29460 23-328; P29459 23-219)
T3 chain 1: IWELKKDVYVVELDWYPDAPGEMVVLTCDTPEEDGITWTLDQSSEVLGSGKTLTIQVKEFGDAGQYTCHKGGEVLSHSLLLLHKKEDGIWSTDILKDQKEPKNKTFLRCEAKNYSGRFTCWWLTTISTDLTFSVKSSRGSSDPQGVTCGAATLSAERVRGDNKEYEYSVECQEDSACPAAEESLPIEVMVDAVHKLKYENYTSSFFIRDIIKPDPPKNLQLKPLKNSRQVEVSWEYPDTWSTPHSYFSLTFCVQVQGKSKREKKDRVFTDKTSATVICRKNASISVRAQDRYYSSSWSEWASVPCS
T3 chain 2: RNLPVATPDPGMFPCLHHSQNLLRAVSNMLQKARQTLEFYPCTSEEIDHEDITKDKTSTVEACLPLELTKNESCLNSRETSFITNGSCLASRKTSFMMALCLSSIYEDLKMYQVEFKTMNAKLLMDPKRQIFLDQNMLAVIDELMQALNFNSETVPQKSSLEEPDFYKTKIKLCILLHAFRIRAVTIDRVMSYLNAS


Biological target: T1, recombinant human IL-12 (rhIL-12)
Experiment: BIAcore

koff | Binder
0.000382 s⁻¹ | HGSHDA [Y61 H102 A]
0.00163 s⁻¹ | HGSHVN [Y61 H101 V]
0.000325 s⁻¹ | HGSHDS [Y61 H102 S]
0.00223 s⁻¹ | HGSHNN [Y61 H101 N]
0.000405 s⁻¹ | HGSHDK [Y61 H102 K]
0.000333 s⁻¹ | HGSHDT [Y61 H102 T]
0.00106 s⁻¹ | HGSHAN [Y61 H101 A]
0.000996 s⁻¹ | HGSHDI [Y61 H102 I]
0.000956 s⁻¹ | HGSHDL [Y61 H102 L]
0.00181 s⁻¹ | HGSHDP [Y61 H102 P]
0.000318 s⁻¹ | HGSHDF [Y61 H102 F]
0.00018 s⁻¹ | HGSHDH [Y61 H102 H]
0.000235 s⁻¹ | HGSHDW [Y61 H102 W]
0.000575 s⁻¹ | HGSHDR [Y61 H102 R]
0.000692 s⁻¹ | HGSHDG [Y61 H102 G]
0.00375 s⁻¹ | HGSHGN [Y61 H101 G]
0.00162 s⁻¹ | HGSHIN [Y61 H101 I]

Biological target: T1, recombinant human IL-12 (rhIL-12)
Experiment: BIAcore
Remark: another data set of the same source

koff | Binder
0.000305 s⁻¹ | NNDQRPS [Y61 L50 N]
0.000617 s⁻¹ | ENDQRPS [Y61 L50 E]
0.0012 s⁻¹ | INDQRPS [Y61 L50 I]
0.00041 s⁻¹ | PNDQRPS [Y61 L50 P]
0.000733 s⁻¹ | GNDYRPS [Y61 L53 Y]
0.0348 s⁻¹ | FNDQRPS [Y61 L50 F]
0.000616 s⁻¹ | LNDQRPS [Y61 L50 L]
0.000467 s⁻¹ | CNDQRPS [Y61 L50 C]
0.000974 s⁻¹ | GNDPRPS [Y61 L53 P]
0.000834 s⁻¹ | GNDTRPS [Y61 L53 T]
0.000385 s⁻¹ | VNDQRPS [Y61 L50 V]
0.000554 s⁻¹ | GNDARPS [Y61 L53 A]
0.000348 s⁻¹ | QNDQRPS [Y61 L50 Q]
0.000855 s⁻¹ | GNDIRPS [Y61 L53 I]
0.000866 s⁻¹ | GNDSRPS [Y61 L53 S]

biological target: T2, recombinant human IL-12 (rhIL-12); experiment: BIAcore (SPR) off-rate on IL-12 chip
Source text: The system utilizes the optical properties of SPR to detect alterations in protein concentrations within a dextran biosensor matrix. Proteins are covalently bound to the dextran matrix at known concentrations. […] To determine the off rate (koff), on rate (kₒₙ), association rate (Ka) and dissociation rate (Kd) constants, BIAcore kinetic evaluation software (version 2.1) was used.

koff | Binder
0.0048 s⁻¹ | 99-H4 (scFv, V domains shown) VH: QVQLVQSGGGVVQPGRSLRLSCAASGFTFSSYGMHWVRQAPGKGLEWVAFIRYDGSNKYYADSVKGRFTISRDNSKNTLYLQMKSLRAEDTAVYYCKTHGSHDNWGQGTMVTVSS VL: SYVLTQPPSVSGTPGQRVTISCSGGRSNIGSNTVKWYQQLPGTAPKLLIYGNDQRPSGVPDRFSGSKSGTSASLAITGVQAEDEADYYCQSYDSRFTGSRVFGTGTKVTVLG
0.0049 s⁻¹ | 99-F6 (scFv, V domains shown) VH: QVQLVQSGGGVVQPGRSLRLSCAASGFTFSSYGMHWVRQAPGKGLEWVAFIRYDGSNKYYADSVKGRFTISRDNSKNTLYLQMKSLRAEDTAVYYCKTHGSHDNWGQGTMVTVSS VL: SYVLTQPPSVSGTPGQRVTISCSGGRSNIGSNTVKWYQQLPGTAPKLLIYGNDQRPSGVPDRFSGSKSGTSASLAITGVQAEDEADYYCQSYDSGSTGSRVFGTGTKVTVLG
0.0049 s⁻¹ | 99-H11 (scFv, V domains shown) VH: QVQLVQSGGGVVQPGRSLRLSCAASGFTFSSYGMHWVRQAPGKGLEWVAFIRYDGSNKYYADSVKGRFTISRDNSKNTLYLQMKSLRAEDTAVYYCKTHGSHDNWGQGTMVTVSS VL: SYVLTQPPSVSGTPGQRVTISCSGGRSNIGSNTVKWYQQLPGTAPKLLIYGNDQRPSGVPDRFSGSKSGTSASLAITGVQAEDEADYYCQSYSTHMPISRVFGTGTKVTVLG
0.0048 s⁻¹ | 99-F7 (scFv, V domains shown) VH: QVQLVQSGGGVVQPGRSLRLSCAASGFTFSSYGMHWVRQAPGKGLEWVAFIRYDGSNKYYADSVKGRFTISRDNSKNTLYLQMKSLRAEDTAVYYCKTHGSHDNWGQGTMVTVSS VL: SYVLTQPPSVSGTPGQRVTISCSGGRSNIGSNTVKWYQQLPGTAPKLLIYGNDQRPSGVPDRFSGSKSGTSASLAITGVQAEDEADYYCQSYPNSYPISRVFGTGTKVTVLG
0.0033 s⁻¹ | 99-H7 (scFv, V domains shown) VH: QVQLVQSGGGVVQPGRSLRLSCAASGFTFSSYGMHWVRQAPGKGLEWVAFIRYDGSNKYYADSVKGRFTISRDNSKNTLYLQMKSLRAEDTAVYYCKTHGSHDNWGQGTMVTVSS VL: SYVLTQPPSVSGTPGQRVTISCSGGRSNIGSNTVKWYQQLPGTAPKLLIYGNDQRPSGVPDRFSGSKSGTSASLAITGVQAEDEADYYCQSYPDGTPASRVFGTGTKVTVLG

Biological target: T3, recombinant human interleukin 12 …
Experiment: BIAcore

koff | Binder
0.000624 s⁻¹ | FIRYDGSSKYYADSVKG [Y61 H56 S]
0.000663 s⁻¹ | FIRYDFSNKYYADSVKG [Y61 H54 F]
0.000628 s⁻¹ | FIRYDGSNKPYADSVKG [Y61 H58 P]
0.000272 s⁻¹ | FIRYDGSGKYYADSVKG [Y61 H56 G]
0.00042 s⁻¹ | FIRYDGSHKYYADSVKG [Y61 H56 H]
0.000169 s⁻¹ | FIRYDGSIKYYADSVKG [Y61 H56 I]
0.000415 s⁻¹ | FIRYDGSNKEYADSVKG [Y61 H58 E]
0.000299 s⁻¹ | FIRYDGSPKYYADSVKG [Y61 H56 P]
0.000264 s⁻¹ | FIRYDGSLKYYADSVKG [Y61 H56 L]
0.000831 s⁻¹ | FIRYDGSNKNYADSVKG [Y61 H58 N]
0.000383 s⁻¹ | FIRYDGSMKYYADSVKG [Y61 H56 M]
0.000657 s⁻¹ | FIRYDGSNKIYADSVKG [Y61 H58 I]
0.000794 s⁻¹ | FIRYDGSNKFYADSVKG [Y61 H58 F]
0.00073 s⁻¹ | FIRYDGSNKLYADSVKG [Y61 H58 L]
0.00039 s⁻¹ | FIRYDGSYKYYADSVKG [Y61 H56 Y]
0.000345 s⁻¹ | FIRYDGSFKYYADSVKG [Y61 H56 F]
0.000524 s⁻¹ | FIRYDGSNKVYADSVKG [Y61 H58 V]
0.000235 s⁻¹ | FIRYDGSTKYYADSVKG [Y61 H56 T]
0.000941 s⁻¹ | FIRYDGSNKSYADSVKG [Y61 H58 S]
